Assays:
[1] = target: T1, ALK (anaplastic lymphoma kinase) receptor, full length, expressed on cells (human, UniProt Q9UM73 19-1620); test: saturation binding of 35S-labeled PTN to 32D/ALK cells
T1 construct: U87MG cells carry endogenous human ALK; also called PTNR; PTN receptor

[2] = target: T1, ALK (anaplastic lymphoma kinase) …; test: saturation binding of 35S-labeled PTN to 32D/ALK cells, non-linear regression
Procedure: For this, ALK-negative mouse hematopoietic cell line 32D was used which grows in suspension culture and expressed the ALK protein in these cells. Also used was ^35S-labeled PTN from metabolic labeling experiments as a ligand for the receptor binding studies. Briefly, cell lysates were then prepared and a total of 3 mg of cellular proteins subjected to immunoprecipitation as described. (Souttou et al., 1997). For uncoupled antibodies, Sepharose-bound protein G (Gammabind plus, Amersham/Pharmacia) was used to precipitate immunocomplexes. Antibodies were anti-phosphotyrosine (agarose-coupled 4G10, 30 µl; UBI, Lake Placid NY), anti-PTNR (a cocktail of antibodies from Santa Cruz Biotechnology, Santa Cruz Calif. and from Accurate Chemicals, Westburg N.Y.), anti-IRS-1 (3 µg of rabbit IgG). Resulting precipitates were analyzed by SDS polyacrylamide gel electrophoresis. Experimental procedures for immunoblots for phosphotyrosine, IRS-1 (anti-IRS-1, Transduction Laboratories, Lexington Ky.), PLC-gamma (anti-PLC-gamma, UBI)and PI3-kinase (UBI) using unlabelled cells as described (Souttou et al., 1997).
Saturation binding of radiolabeled PTN to 32D/ALK (filled symbols) and 32D/control cells (open symbols) (FIG. 2b). Data were pooled from two independent experiments with triplicate repeat measurements of data points. […]

T1 sequence (Q9UM73 other isoform, or with tags, fused parts or gaps limits assumed): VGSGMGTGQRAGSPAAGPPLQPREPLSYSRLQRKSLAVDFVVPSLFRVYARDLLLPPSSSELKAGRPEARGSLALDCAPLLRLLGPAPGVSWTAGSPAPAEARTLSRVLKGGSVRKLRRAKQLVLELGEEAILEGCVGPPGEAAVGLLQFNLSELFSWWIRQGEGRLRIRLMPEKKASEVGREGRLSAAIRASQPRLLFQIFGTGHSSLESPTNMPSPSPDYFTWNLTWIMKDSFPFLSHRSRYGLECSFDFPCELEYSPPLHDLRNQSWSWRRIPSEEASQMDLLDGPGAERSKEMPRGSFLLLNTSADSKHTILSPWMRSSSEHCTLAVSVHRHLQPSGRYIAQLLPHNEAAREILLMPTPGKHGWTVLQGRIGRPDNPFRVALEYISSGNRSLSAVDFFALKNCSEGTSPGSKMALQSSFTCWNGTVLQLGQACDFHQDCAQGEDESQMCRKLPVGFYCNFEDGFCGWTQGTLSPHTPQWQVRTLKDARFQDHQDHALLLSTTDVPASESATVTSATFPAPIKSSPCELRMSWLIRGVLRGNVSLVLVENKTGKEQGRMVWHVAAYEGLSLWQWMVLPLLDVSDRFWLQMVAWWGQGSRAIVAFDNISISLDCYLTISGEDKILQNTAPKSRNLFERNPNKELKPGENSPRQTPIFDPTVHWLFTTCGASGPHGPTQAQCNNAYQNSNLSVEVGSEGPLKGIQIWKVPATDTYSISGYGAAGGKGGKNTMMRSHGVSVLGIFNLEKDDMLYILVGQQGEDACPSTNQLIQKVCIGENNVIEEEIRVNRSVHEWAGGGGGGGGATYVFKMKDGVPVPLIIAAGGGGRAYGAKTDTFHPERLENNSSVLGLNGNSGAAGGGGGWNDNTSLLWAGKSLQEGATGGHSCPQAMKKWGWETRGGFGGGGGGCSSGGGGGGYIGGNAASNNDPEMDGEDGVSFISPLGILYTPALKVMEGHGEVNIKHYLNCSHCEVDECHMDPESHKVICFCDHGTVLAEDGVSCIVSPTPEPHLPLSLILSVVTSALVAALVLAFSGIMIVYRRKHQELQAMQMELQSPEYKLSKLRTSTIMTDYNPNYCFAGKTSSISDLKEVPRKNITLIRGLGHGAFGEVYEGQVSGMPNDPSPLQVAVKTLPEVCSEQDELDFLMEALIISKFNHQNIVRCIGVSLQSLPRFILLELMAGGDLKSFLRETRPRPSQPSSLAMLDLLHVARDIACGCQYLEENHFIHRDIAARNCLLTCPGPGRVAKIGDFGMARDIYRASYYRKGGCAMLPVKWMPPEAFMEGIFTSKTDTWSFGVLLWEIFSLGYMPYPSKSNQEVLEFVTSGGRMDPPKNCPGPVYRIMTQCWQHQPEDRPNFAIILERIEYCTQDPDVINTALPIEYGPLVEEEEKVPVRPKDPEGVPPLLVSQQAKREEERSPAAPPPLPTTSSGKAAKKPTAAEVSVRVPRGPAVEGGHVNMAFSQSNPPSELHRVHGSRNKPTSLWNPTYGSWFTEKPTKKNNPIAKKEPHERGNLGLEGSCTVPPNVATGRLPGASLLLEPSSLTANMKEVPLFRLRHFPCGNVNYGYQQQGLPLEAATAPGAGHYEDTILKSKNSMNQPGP

Kd [1]: 0.03 to 0.04 nM
Kd [2]: 0.032 nM
B1: pleiotrophin (PTN), purified from the culture supernatant of cells transfected with the human PTN cDNA (ligand, UniProt P21246 33-168, looked up)
chain: GKKEKPEKKVKKSDCGEWQWSVCVPTSGDCGLGTREGTRTGAECKQTMKTQRCKIPCNWKKQFGAECKYQFQAWGECDLNTALKTRTGSLKRALHNAECQKTVTISKPCGKLTKPKPQAESKKKKKEGKKQEKMLD
notes: also called PTN ligand; radiolabeled PTN

— patent publication US7528109 (GEORGETOWN UNIVERSITY, dated 2009)
